According to article PMC7156710, “The Sox2 transcription factor binds RNA”:
Where “and” joins values, the source holds several entries; their conditions need not be identical. Equal values may be shown once.

B1: Loop B fully paired RNA duplex (dsRNA)
RNA 1: GGUCUUAUCAUGCGGGC
RNA 2: GCCCGCAUGAUAAGACC
B2: ES2 179-267 (structured_RNA)
RNA: GGGUCUGUUAACCAUCACCACUGGUUCUACAUUAAGUAGGAGGUUCAGGGCUAAGCUAAUAACUCGCCUGCCUUUCUGACUGAUCACAG
B3: env4 Cbl riboswitch (structured_RNA)
RNA: GGUGUUAAAAGCAUAGUGGGAAAGUGACGUGUAAUUCGUCCACAUUACUUGAUGCGGUUAUAGUCCCAAUGCCACCUAACACAAAGUACGAGCAAGGAGACUC
B4: ES2 89-178 (structured_RNA)
RNA: GGCUGGAACAUCUGUUUCUAGCUUGUUGUUCCUCUUGGCUGCUUUUCAAUUGGAUUUCCUCGAGCAGGUCCCAGGCUUGUCACUGCAGCCA
B5: xpt-pbuX riboswitch (structured_RNA)
RNA: GGACAUAUAAUCGCGUGGAUAUGGCACGCAAGUUUCUACCGGGCACCGUAAAUGUCCGACUAUGUCC
B6: tRNALeu(CAG) (structured_RNA)
RNA: GCGAAGGUGGCGGAAUUGGUAGACGCGCUAGCUUCAGGUGUUAGUGUCCUUACGGACGUGGGGGUUCAAGUCCCCCCCCUCGCACCAGGAUCU
B7: ES2 89-267 (structured_RNA)
RNA: GGCUGGAACAUCUGUUUCUAGCUUGUUGUUCCUCUUGGCUGCUUUUCAAUUGGAUUUCCUCGAGCAGGUCCCAGGCUUGUCACUGCAGCCAGGGUCUGUUAACCAUCACCACUGGUUCUACAUUAAGUAGGAGGUUCAGGGCUAAGCUAAUAACUCGCCUGCCUUUCUGACUGAUCACAG
B8: ES2 267-354 (structured_RNA)
RNA: GGUGAUGUUCGCCGUGGCCACUUAUCAUGCGGGCUCCUUUGGGAGGGUGCUCUUCUUUGUCUGUACCUCUGGGUGGAAAGGGCGAAUUC
B9: ES2 1-178 (structured_RNA)
RNA: GGAAGAAGUGAAAUCACUAUAUUUAGAAACGAAUGCUACCAUCCCACCCCAACUACAUGUUCAGGUUAAAUGCGUGCACAUCCUGGUAGCUGGAACAUCUGUUUCUAGCUUGUUGUUCCUCUUGGCUGCUUUUCAAUUGGAUUUCCUCGAGCAGGUCCCAGGCUUGUCACUGCAGCCA
B10: ES2 179-354 (structured_RNA)
RNA: GGGUCUGUUAACCAUCACCACUGGUUCUACAUUAAGUAGGAGGUUCAGGGCUAAGCUAAUAACUCGCCUGCCUUUCUGACUGAUCACAGUGAUGUUCGCCGUGGCCACUUAUCAUGCGGGCUCCUUUGGGAGGGUGCUCUUCUUUGUCUGUACCUCUGGGUGGAAAGGGCGAAUUC
B11: ES2 1-89 (structured_RNA)
RNA: GGAAGAAGUGAAAUCACUAUAUUUAGAAACGAAUGCUACCAUCCCACCCCAACUACAUGUUCAGGUUAAAUGCGUGCACAUCCUGGUAG
B12: Loop B fully paired RNA duplex (Fig. 3g) (dsRNA)
RNA 1: GGUCUUAUCAUGCGGGC
RNA 2: GCCCGCAUGAUAAGACC
B13: CCND1_SM1 dsDNA (dsDNA)
DNA 1: CGCGCCCTCTTCCCCGGGT
DNA 2: ACCCGGGGAAGAGGGCGCG
B14: SOX2 enhancer dsDNA (dsDNA)
DNA 1: CGCGCCATTGTGCCCGGGT
DNA 2: ACCCGGGCACAATGGCGCG
B15: DPPA4 enhancer dsDNA (dsDNA)
DNA 1: CGCGCATTTGTACCCGGGT
DNA 2: ACCCGGGTACAAATGCGCG
B16: FGF4 enhancer dsDNA (dsDNA)
DNA 1: CGCGCCTTTGTTCCCGGGT
DNA 2: ACCCGGGAACAAAGGCGCG
B17: CCND1_SM6 dsDNA (dsDNA)
DNA 1: CGCGCACTACAGCCCGGGT
DNA 2: ACCCGGGCTGTAGTGCGCG

biological target: T1, Sox2-HMG (Homo sapiens, UniProt P48431 40-123); experiment: EMSA; 10 mM Tris-HEPES pH 7.5, 135 mM KCl, 15 mM NaCl, 1 mM DTT, 8% Ficoll, 0.05% NP-40, 0.1 mg/mL BSA; 2 nM DNA or 3 nM RNA; room temperature (stated for competition); conditions: protein: recombinant; tags: N-terminal His6, thrombin cleaved; label: 3' fluorescein; hairpin
T1 sequence (P48431 40-123): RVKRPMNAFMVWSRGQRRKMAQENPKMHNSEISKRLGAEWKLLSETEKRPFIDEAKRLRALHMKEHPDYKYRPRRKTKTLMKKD

Row | Binder | Kd
1 | GGUCUUAUCAUGCGGGCGAAAGUCUGUAUGAUGGGACC (structured_RNA) [Loop B, Fully Paired] | 20 ± 4 nM

biological target: T1, Sox2-HMG; experiment: fluorescence anisotropy; 10 mM Tris-HEPES pH 7.5, 135 mM KCl, 15 mM NaCl, 1 mM DTT, 8% Ficoll, 0.05% NP-40, 0.1 mg/mL BSA; 2 nM DNA or 3 nM RNA; room temperature (stated for competition); conditions: protein: recombinant; tags: N-terminal His6, thrombin cleaved; label: 3' fluorescein; hairpin

Row | Binder | Kd
2 | GGUCUUAUCAUGCGGGCGAAAGUCUGUAUGAUGGGACC (structured_RNA) [Loop B, Fully Paired] | 15 ± 2 nM
3 | GGUUAUCAUGCGGGCGAAAGUCUGUACCUCUGGCC (structured_RNA) [Loop B, P1(5bp)] | 12.8 ± 1.8 nM

same assay, conditions: protein: recombinant; tags: N-terminal His6, thrombin cleaved; label: FAM on one strand; blunt

Row | Binder | Kd
4 | B1 | 54 ± 9 nM

biological target: Sox2-HMG (thrombin cleaved) (Homo sapiens, UniProt P48431 38-121); experiment: fluorescence anisotropy; 10 mM Tris-HEPES pH 7.5, 8% Ficoll, 0.05% NP-40, 135 mM KCl, 15 mM NaCl, 1 mM DTT, 0.1 mg/mL BSA; 2 nM DNA or 3 nM RNA; conditions: protein: recombinant; tags: N-terminal GSHM left after thrombin cleavage of His6; label: 3' fluorescein
Sequence (P48431 other isoform, or with tags, fused parts or gaps): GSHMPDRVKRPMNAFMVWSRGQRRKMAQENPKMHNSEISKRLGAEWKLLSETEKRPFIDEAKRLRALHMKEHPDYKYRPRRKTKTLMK

Row | Binder | Kd
5 | B2 | 11.5 ± 2.68 nM
6 | B3 | 32.4 ± 1.08 nM
7 | B4 | 13.4 ± 1.63 nM
8 | B5 | 25.4 ± 2.54 nM
9 | B6 | 26.5 ± 5.62 nM
10 | B7 | 32.4 ± 6.56 nM
11 | B8 | 10.3 ± 2.03 nM
12 | B9 | 29.7 ± 4.07 nM
13 | B10 | 11.2 ± 0.792 nM
14 | B11 | 22.2 ± 3.26 nM

same assay, conditions: protein: recombinant; tags: N-terminal GSHM left after thrombin cleavage of His6; label: 3' fluorescein; hairpin

Row | Binder | Kd
15 | GGUCUUAUCAUGCGGGCGAAAGUCUGUAUGAUGGGACC (structured_RNA) [Loop B, Fully Paired] | 14.7 ± 1.68 nM
16 | GGUCGCCGUGGCCACUUCGAAAGGGGUGGAAAGGGCGACC (structured_RNA) [Loop A] | 11.3 ± 2.5 nM
17 | GGAUCAUGCGGGCGAAAGUCUGUACCUCUCC (structured_RNA) [Loop B, P1(3bp)] | 10.3 ± 1.94 nM
18 | GGUUAUCAUGCGGGCGAAAGUCUGUACCUCUGGCC (structured_RNA) [Loop B, P1(5bp)] | 12.8 ± 1.84 nM
19 | GGUCUUAAGGUGCGGGCGAAAGUCUGUACCUCUGGGACC (structured_RNA) [Loop B, Bulge(0+1)] | 10 ± 1.66 nM
20 | GGUCUUAUGGUGCGGGCGAAAGUCUGUACCUCUGGGACC (structured_RNA) [Loop B, Bulge(1+2)] | 12 ± 1.98 nM
21 | GGUCUUAUCGUGCGGGCGAAAGUCUGUACCUCUGGGACC (structured_RNA) [Loop B, Bulge(2+3)] | 13.6 ± 2.46 nM
22 | GGUGGGCUCCUUUGGGAGGGUGCUCUUCUUUGUCUACC (structured_RNA) [Loop C] | 11.2 ± 1.57 nM
23 | GGUAUCAUGCGGAAACGCACCUCUACC (structured_RNA) [Loop B, P1/2(3bp)] | 10.6 ± 1.82 nM
24 | GGUCUUAUCAUGCGCGAAAGUGUACCUCUGGGACC (structured_RNA) [Loop B, P2(5bp)] | 9.6 ± 1.32 nM
25 | GGUCUUAUCAUGCGAAAGUACCUCUGGGACC (structured_RNA) [Loop B, P2(3bp)] | 11.4 ± 1.46 nM

same assay, conditions: protein: recombinant; tags: N-terminal GSHM left after thrombin cleavage of His6; label: 3' fluorescein; hairpin with internal loop

Row | Binder | Kd
26 | GGUCUUAUCAUGCGGGCGAAAGUCUGUACCUCUGGGACC (structured_RNA) [Loop B] | 10 ± 1.68 nM

same assay, conditions: protein: recombinant; tags: N-terminal GSHM left after thrombin cleavage of His6; label: 3' fluorescein; unstructured

Row | Binder | Kd
27 | AUACAACAUACAACAUACAACAUACAACAUACAACA (ssRNA) [env8 ssRNA] | 502 ± 123 nM

same assay, conditions: protein: recombinant; tags: N-terminal GSHM left after thrombin cleavage of His6; label: FAM on one strand

Row | Binder | Kd
28 | B12 | 35.1 ± 2.81 nM

same assay, conditions: protein: recombinant; tags: N-terminal GSHM left after thrombin cleavage of His6; label: FAM; only (+) strand given

Row | Binder | Kd
29 | B13 | 9.77 ± 1.07 nM
30 | B14 | 0.867 ± 0.219 nM
31 | B15 | 3.4 ± 0.954 nM
32 | B16 | 0.937 nM and 0.85 nM
33 | B17 | 23.8 ± 5.4 nM

biological target: Sox2 full length (Homo sapiens, UniProt P48431 1-317); experiment: as above; conditions: protein: recombinant; tags: N-terminal His6 and thrombin site (retained); label: 3' fluorescein; unstructured
Sequence (P48431 whole entry): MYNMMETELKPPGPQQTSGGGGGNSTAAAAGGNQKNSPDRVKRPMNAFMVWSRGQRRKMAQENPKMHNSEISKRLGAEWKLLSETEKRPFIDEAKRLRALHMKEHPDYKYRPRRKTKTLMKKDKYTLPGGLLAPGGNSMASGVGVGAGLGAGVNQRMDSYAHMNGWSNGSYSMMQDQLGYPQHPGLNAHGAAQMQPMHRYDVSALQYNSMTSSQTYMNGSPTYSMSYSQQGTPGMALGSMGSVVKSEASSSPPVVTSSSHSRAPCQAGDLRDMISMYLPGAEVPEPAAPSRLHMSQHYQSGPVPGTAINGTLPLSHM

Row | Binder | Kd
34 | AUACAACAUACAACAUACAACAUACAACAUACAACA (ssRNA) [env8 ssRNA] | 512 ± 76.5 nM

same assay, conditions: protein: recombinant; tags: N-terminal His6 and thrombin site (retained); label: FAM; only (+) strand given

Row | Binder | Kd
35 | B16 | 2.1 ± 0.599 nM

biological target: Sox2-HMG (HRV 3C cleaved) (Homo sapiens, UniProt P48431 38-121); experiment: as above; conditions: protein: recombinant; tags: N-terminal GPHM left after removal of His8-MBP; label: 3'-FAM; hairpin
Sequence (P48431 other isoform, or with tags, fused parts or gaps): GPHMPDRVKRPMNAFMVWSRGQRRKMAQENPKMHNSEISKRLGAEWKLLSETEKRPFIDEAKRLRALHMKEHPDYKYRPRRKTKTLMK

Row | Binder | Kd
36 | GGUCCGAAAGGACC (structured_RNA) [5 bp hairpin] | 71 ± 12.1 nM
37 | GGUCCAUGCGGGCGAAAGUCUGUAUGGACC (structured_RNA) [13 bp hairpin] | 83 ± 9.8 nM
38 | GGUCCAUGCGAAAGUAUGGACC (structured_RNA) [9 bp hairpin] | 54 ± 6.94 nM

biological target: T1, Sox2-HMG; experiment: competition; unlabeled RNA vs labeled FGF4 DNA; 10 mM Tris-HEPES pH 7.5, 135 mM KCl, 15 mM NaCl, 1 mM DTT, 8% Ficoll, 0.05% NP-40, 0.1 mg/mL BSA; 2 nM DNA or 3 nM RNA; room temperature (stated for competition); conditions: protein: recombinant; tags: N-terminal His6, thrombin cleaved; label: 3' fluorescein; hairpin

Row | Binder | Ki
39 | GGUCUUAAGGUGCGGGCGAAAGUCUGUACCUCUGGGACC (structured_RNA) [Loop B, Bulge(0+1)] | 13 ± 4 nM
